Test results: IntAct's records for PubMed 17277084

B1: Serine/threonine-protein kinase PBS1 (Arabidopsis thaliana (Mouse-ear cress)), Q9FE20 (parent)
chain: MGCFSCFDSSDDEKLNPVDESNHGQKKQSQPTVSNNISGLPSGGEKLSSKTNGGSKRELLLPRDGLGQIAAHTFAFRELAAATMNFHPDTFLGEGGFGRVYKGRLDSTGQVVAVKQLDRNGLQGNREFLVEVLMLSLLHHPNLVNLIGYCADGDQRLLVYEFMPLGSLEDHLHDLPPDKEALDWNMRMKIAAGAAKGLEFLHDKANPPVIYRDFKSSNILLDEGFHPKLSDFGLAKLGPTGDKSHVSTRVMGTYGYCAPEYAMTGQLTVKSDVYSFGVVFLELITGRKAIDSEMPHGEQNLVAWARPLFNDRRKFIKLADPRLKGRFPTRALYQALAVASMCIQEQAATRPLIADVVTALSYLANQAYDPSKDDSRRNRDERGARLITRNDDGGGSGSKFDLEGSEKEDSPRETARILNRDINRERAVAEAKMWGESLREKRRQSEQGTSESNSTG
partner: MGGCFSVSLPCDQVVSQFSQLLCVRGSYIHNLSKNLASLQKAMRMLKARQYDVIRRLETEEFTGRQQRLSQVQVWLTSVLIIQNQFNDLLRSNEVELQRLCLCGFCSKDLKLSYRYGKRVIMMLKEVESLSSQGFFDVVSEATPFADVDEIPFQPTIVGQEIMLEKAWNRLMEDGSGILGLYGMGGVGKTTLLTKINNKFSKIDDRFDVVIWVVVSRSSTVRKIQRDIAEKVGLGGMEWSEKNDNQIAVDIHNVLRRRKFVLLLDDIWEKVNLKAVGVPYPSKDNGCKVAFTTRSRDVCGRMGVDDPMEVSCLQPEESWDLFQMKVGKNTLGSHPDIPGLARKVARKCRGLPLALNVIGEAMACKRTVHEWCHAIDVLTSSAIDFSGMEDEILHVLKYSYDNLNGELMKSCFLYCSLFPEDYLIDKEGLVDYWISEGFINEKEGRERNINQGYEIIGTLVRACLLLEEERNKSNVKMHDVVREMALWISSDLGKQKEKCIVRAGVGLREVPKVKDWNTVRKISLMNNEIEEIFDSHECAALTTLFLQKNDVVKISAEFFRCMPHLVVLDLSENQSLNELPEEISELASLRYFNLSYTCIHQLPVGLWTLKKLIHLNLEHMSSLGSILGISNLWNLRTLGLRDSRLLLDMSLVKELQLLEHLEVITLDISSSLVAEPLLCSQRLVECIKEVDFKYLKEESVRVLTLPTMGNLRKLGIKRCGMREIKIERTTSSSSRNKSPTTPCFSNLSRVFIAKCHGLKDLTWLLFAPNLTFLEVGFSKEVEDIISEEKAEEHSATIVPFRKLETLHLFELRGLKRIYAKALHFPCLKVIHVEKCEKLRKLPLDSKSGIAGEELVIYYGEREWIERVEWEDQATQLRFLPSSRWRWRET

Variants of: B1
Conditions: with rps5_arath RPS5, O64973

Row | effect of a mutation on the interaction | Variant
1 | disrupting interaction strength | K115N
2 | disrupting interaction strength | G252R
